Measurements as given in PMC8340551 (The Journal of Cell Biology, 2021).

Biological target: T1, FHL2-Flag (UniProt Q14192 1-279)
T1 sequence (looked up): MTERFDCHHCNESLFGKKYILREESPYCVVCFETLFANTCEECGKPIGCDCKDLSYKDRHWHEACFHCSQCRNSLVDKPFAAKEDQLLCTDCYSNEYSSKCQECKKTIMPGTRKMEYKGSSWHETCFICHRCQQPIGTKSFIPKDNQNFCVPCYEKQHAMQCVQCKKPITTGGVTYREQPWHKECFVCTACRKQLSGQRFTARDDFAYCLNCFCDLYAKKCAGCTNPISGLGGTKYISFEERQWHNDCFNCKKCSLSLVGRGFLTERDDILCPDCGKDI
Assay: co-IP

fold more co-precipitated with OGT overexpression than with OGA overexpression: 5 fold
B1: Myc-TRAK1 (Myc-TRAK1^WT) (natural protein, UniProt Q9UPV9 1-953, looked up)
chain: MALVFQFGQPVRAQPLPGLCHGKLIRTNACDVCNSTDLPEVEIISLLEEQLPHYKLRADTIYGYDHDDWLHTPLISPDANIDLTTEQIEETLKYFLLCAERVGQMTKTYNDIDAVTRLLEEKERDLELAARIGQSLLKKNKTLTERNELLEEQVEHIREEVSQLRHELSMKDELLQFYTSAAEESEPESVCSTPLKRNESSSSVQNYFHLDSLQKKLKDLEEENVVLRSEASQLKTETITYEEKEQQLVNDCVKELRDANVQIASISEELAKKTEDAARQQEEITHLLSQIVDLQKKAKACAVENEELVQHLGAAKDAQRQLTAELRELEDKYAECMEMLHEAQEELKNLRNKTMPNTTSRRYHSLGLFPMDSLAAEIEGTMRKELQLEEAESPDITHQKRVFETVRNINQVVKQRSLTPSPMNIPGSNQSSAMNSLLSSCVSTPRSSFYGSDIGNVVLDNKTNSIILETEAADLGNDERSKKPGTPGTPGSHDLETALRRLSLRRENYLSERRFFEEEQERKLQELAEKGELRSGSLTPTESIMSLGTHSRFSEFTGFSGMSFSSRSYLPEKLQIVKPLEGSATLHHWQQLAQPHLGGILDPRPGVVTKGFRTLDVDLDEVYCLNDFEEDDTGDHISLPRLATSTPVQHPETSAHHPGKCMSQTNSTFTFTTCRILHPSDELTRVTPSLNSAPTPACGSTSHLKSTPVATPCTPRRLSLAESFTNTRESTTTMSTSLGLVWLLKERGISAAVYDPQSWDRAGRGSLLHSYTPKMAVIPSTPPNSPMQTPTSSPPSFEFKCTSPPYDNFLASKPASSILREVREKNVRSSESQTDVSVSNLNLVDKVRRFGVAKVVNSGRAHVPTLTEEQGPLLCGPPGPAPALVPRGLVPEGLPLRCPTVTSAIGGLQLNSGIRRNRSFPTMVGSSMQMKAPVTLTSGILMGAKLSKQTSLR
modifications: O-GlcNAc on serine and threonine residues (sites not given), more with co-expressed OGT, less with co-expressed OGA
